The record followed here is patent US20140289906A1, “Compositions Having Dicamba Decarboxylase Activity and Methods of Use” (priority 2013, published 2014).

The nature of data set [1]: Dicamba decarboxylation activity of computationally designed protein variants and parents (Tables 4, 5). Conditions: native proteins and designed variants; assay not specified.
Data set [2] can be described thus: 14C assay: 14CO2 capture from [14C]-carboxyl-labeled dicamba with IPTG-induced recombinant E. coli cells. The note with it: for Dicamba Decarboxylase Activity: IPTG-induced recombinant E. coli cells, 14CO2 from [14C]-carboxyl-labeled dicamba; for Enzymatic Detection level: dicamba decarboxylation activity.

Numbering of substitutions follows the chain as printed. Entries after “also recorded” stand apart in the source; their conditions may differ.

B1: 100 (protein, listed as Reinekea blandensis)
chain: MAIIDCHGHYTTTPKGVEDYRNAQKAAVAKDPSFKGEKGQVVVSDDEIRESIENNQLKMQRERGTDLTIFSPRASWMGHHIGNEYTSQFWTEHQNDLIRRVCDLFPKNFAPVAQLPQSPGVDPAKSVPEIVRTVEQMGFIGINLNPDPSGGYWKDTSLADRAFYPIYEKMVEYDIPAMIHVSAACNDCFHTTGSHYLGADTTGFQQLIMSDVFKDFPSLKIIIPHGGGAVPYHWGRFRGLMQDQGYAPLEESALKNIYFDTCVYHQRGIDLLLDIVPTQNILFASEMIGAVRGIDPETGHNFDDTKRYIDNNTALNAEEKAMIFEGNARRVFSRLKTD
For the molecule B1, in data set [1], the “dicamba decarboxylase activity (statement in the description)” value was “Neither of the native proteins have dicamba decarboxylase activity”. In data set [2], the “Dicamba Decarboxylase Activity” value is listed as “No” and the “Enzymatic Detection level” value is “No”.

B2: 24 (protein)
chain: MALGKVVLEEAYERPNMKEKSNHEAGLYIAPNDRPRYMRQINDINQERLKLADAHGVGYTIISLTVPGIQGIFDKTEAERVATETNNWAAEQIKNHRDRLGAFACLSMHDPAQAANELRRCVQELGFHGALLCSFQHAGPDGETYLFYDQPKYDVFWKALTELDVPLYIHPAAPTGSILERLYAQRPALIGPPLSFANDVSLHTLGIISNGVFDRFPNLKIIIGHLGEHIPFDFWRIDHWFRDVKKPIADEEGRVMAQKSLYHYFKHNIWLTTSGHFSTPTLKYVVNEIGVDRVLFSVDYPYETTESGCNWWDHDKDAIVEAVGGVDNYYAIGRENAKKLLRLDKFHDSDAR
modifications: Aspergillus niger
As to B2, in data set [2], the “Dicamba Decarboxylase Activity” value is recorded as “Low” and the “Enzymatic Detection level” value is listed as “Low”.

B3: 17 (protein)
chain: MARGKIALEEAFEVKGMDEEIDAQAALYIAPKDVERYKRQIVSITDERLQLSDQNGIGYSILSLTVPGIQGITDKDKAEKRARDVNNYIHDQIKDHRDRLGAFAALSMHDPRQAGHELRRCVKELGFHGALLNDVQHTGEGDDDQPLFYDQPDYDEFWRVAVELDVPVYLHPAAPLRDTLIYKQSYEDRKYLVGPPQSYCNGVALHLMGIIVNGVFDRFPNLKVIVGHMGERIPFDFWRMDHWVKGVTRPLAEKNGDTVCQKEPLYYFKRNIYITTSGHFSTQNLRYLYEWLGDERMMFSVDFPYERMEHGCQWYDDDAEKIKEALGGRDGYLRVGRDNARRLFKLTKFKDCDAV
modifications: Aspergillus niger
Regarding B3, in data set [2], the “Dicamba Decarboxylase Activity” value is “Low” and the “Enzymatic Detection level” value is “Low”.

B4: 18 (protein, listed as Legionella pneumophila)
chain: MAIVDFETHFITEACIDYLTQRQEVPKLVPELNGAYTMCFTPDVSLFHTSALMEELLSLNEQRLAIMDQAGVTIQVLSLTTINGIDSCPGDENKSTALAREVNDQLYSAIQKHPERFKGFASISPYDVKEGVKELERAISQLGFVGWLTHSNFGQDNYLDDKIYWPLLEAAESLNIPIYLHPNVPIMREFGKYGFALGGSALGFEFDTALCLMRMILGGVFDAFPKLKIMLGHLGETMPFLMERLDHLYRIPDLKPYRPSIQRIPSEVLRQNVYITTSGRFFVPALRYVLEVMGEDRVLFASDYPMESLLDATRFIQDSDLSNQTKQKIFSINAKNLNLI
Turning to B4, in data set [2], the “Dicamba Decarboxylase Activity” value is given as “Low” and the “Enzymatic Detection level” value is “Low”.

B5: 20 (protein, listed as Legionella pneumophila)
chain: B4 chain with E31D, K112R, I163T, S173G, P256A
Take B5: in data set [2], the “Dicamba Decarboxylase Activity” value was “Low” and the “Enzymatic Detection level” value is recorded as “Low”.

B6: 29 (protein, listed as Pseudovibrio sp.)
chain: MAGRRDFLRKSVAAGVGLTAAAQLSAGGAQATVPDTSNIPLITLEEHFTTPELQSKNTSGDKRLFSGGGSRPELLDVGAGRIADMDEAGIDIQVLSTVTPGASKITGAEGVEFTRKFNTWIAEEVIAAYPNRFRAFATLPLSSPEAAADELERSVREYGFVGTMTYGPIDGKFLDHADYAPLLARAEALGVPIYIHPNWPSPTAMQAYYDGLGDDLTSRILSGPGYGWHQEIAVQCLRLIVGGVFDRFPNLQIVVGHMGEGLPFYYWRVGEDLDRIAQKRLQKPVQQYFHDNLWITTSAFFRDELLNLALATMGEDRVMFSVDYPMASAKVGADWLRAADIPLATKEKIGSKNAMKLLGIDKI
In the case of B6, in data set [2], the “Dicamba Decarboxylase Activity” value was “No” and the “Enzymatic Detection level” value is “No”.

B7: 95 (protein, listed as Pseudomonas fluorescens)
chain: MAKKPRIDMHSHFFPRISEQEAAKFDANHAPWLQVSAKGDTGSIMMGKNNFRPVYQALWDPAFRIEEMDAQGVDVQVTCATPVMFGYTWEANKAAQWAERMNDFALEFAAHNPQRIKVLAQVPLQDLDLACKEASRAVAAGHLGIQIGNHLGDKDLDDATLEAFLTHCANEDIPILVHPWDMMGGQRMKKWMLPWLVAMPAETQLAILSLILSGAFERIPKSLKICFGHGGGSFAFLLGRVDNAWRHRDIVREDCPRPPSEYVDRFFVDSAVFNPGALELLVSVMGEDRVMLGSDYPFPLGEQKIGGLVLSSNLGESAKDKIISGNASKFFNINV
Take B7: the “dicamba decarboxylase activity (statement in the description)” value in data set [1] was “not active for dicamba decarboxylation; also recorded: Neither of the native proteins have dicamba decarboxylase activity”. For the same molecule, in data set [2], the “Dicamba Decarboxylase Activity” value is “No” and the “Enzymatic Detection level” value is reported as “No”.

B8: 27 (protein, listed as Aspergillus oryzae)
chain: MALGKIALEEAFALPRFEEKTRWWASLFSTDAETHVKEITDINKIRIEHADKHGVGYQILSYTAPGVQDIWDPVEAQALAVEINDYIAEQVRVNPDRFGAFATLSMHNPKEAADELRRCVEKYGFKGALVNDTQRAGPDGDDMIFYDNADWDIFWQTCTELDVPFYMHPRNPTGTIYEKLWADRKWLVGPPLSFAHGVSLHVLGMVTNGVFDRHPKLQIIMGHLGEHVPFDMWRINHWFEDRKKLLGLAETCKKTIRDYFAENIWITTSGHFSTTTLNFCMAEVGSDRILFSIDYPFETFSDACEWFDNAELNGTDRLKIGRENAKKLFKLDSYKDSSA
With B8, in data set [2], the “Dicamba Decarboxylase Activity” value is “No” and the “Enzymatic Detection level” value was “No”.

B9: 23 (protein, listed as Aplysina aerophoba)
chain: MAIDIDARSQPGLETARRAMSRRDFLGGAAAFGITAAATTALPASTAAGEEEDLFLLGLEEHFATAELRRLNGIQFPQGTPRFDINDVGAGRIADMDAAGIDIQVLSALTPGAQNLPGAEGVAYARRLNSWVAHEVIPAYPGRFRAFATLPLSEPQAAADELEYAVRELGFLGCMTYGAVDGKFLDHADFVPVLARAETLDVPIYIHPNWASPQVMDTYYNGLGNEWVSRVLSGAGYGWHQEVALQCLRMIASGVFDRFPRLQIIVGHMGEGLPFFYWRFGDDLARITADTLEKPVQQYFHDNFWITTSAFFRDELLRLVLSVMGEDRVMFAVDYPFVSNKVGADWFRAVDLPRNVKEKIAHKNAERLLKIGPF
On to B9, for which, in data set [2], the “Dicamba Decarboxylase Activity” value was “Low” and the “Enzymatic Detection level” value is given as “Low”.

B10: 124 (protein)
chain: MAQGKVALEEHFAIPETLQDSAGFVPGDYWKELQHRLLDIQDTRLKLMDAHGIETMILSLAAPAVQAIPDRRKAIEIARRANDFLAEECAKRPDRFLAFAALPLQDPDAATEELQRCVNDLGFVGALVNGFSQEGDGQTPLYYDLPQYRPFWGEVEKLDVPFYLHPRNPLPQDSRIYDGHPWLLGPTWAFAQETAVHALRLMASGLFDEHPQLNIILGHMGEGLPYMMWRIDHRVAWGKLPPAYPAKRRFMDYFNENFHITTSGNFRTQTLIDAILEIGADRILFSTDWPFENIDHASDWFNATSIAEADRVKIGRTNARRLFKLDGD
modifications: Dicamba decarboxylase variant clone S03969214
Take B10: the “Enzymatic Detection level” value in data set [2] is “High”.

B11: 125 (protein)
chain: B10 chain with Q212R, N214Q, W229Y, V235I, G238V, K239H, L240E, A243R, D328A
modifications: Dicamba decarboxylase variant clone S03970523
Take B11: the “Enzymatic Detection level” value in data set [2] was “High”.

B12: 25 (protein, listed as Acidovorax avenae)
chain: MAQGKIGLEEHFAIPETLQDSAGFVPGDYWKELSLRLLDIHERRLREMDENGMEMMILSLNAPAVQAIPDTKKAVEIAVRANDFLAEQVARRPDRFQAFAALPMQDPDLATRELERCMQDLGFRGALVNGFSQVGTPENVVYYDAPQYGDFWAAVERLDAPFYLHPRNPIASWAQIYQGHPWLMGPTWAFAQETAVHALRLMASGLFDRHPGLRIILGHLGEGLPYNMWRVDHRNAWVDMPKGYPAKRKLCDYFHENFYLTTSGNFRTQTLIDALLEVGADRILFSTDWPFENVDHAAHWFDDAAISEADRLKIGRTNALSLFKLPQG
For the molecule B12, in data set [2], the “Dicamba Decarboxylase Activity” value is reported as “Low” and the “Enzymatic Detection level” value is “Low”.
